The chains are these.
B1: scFv 2H1 (scFv)
scFv: QQVQLVQSGAEVKKPGESLKISCKGSGYSFTSYWIGWVRQMPGKGLEWMGIIYPGDSDTRYSPSFQGQVTISADKSISTAYLQWSSLKASDTAMYYCARLVVRDTEIWGQGTMVTVSSAPQAKSSGSGSESKVDQAVVTQEPSLTVSPGGTVTLTCASSIGAVTSGNYPNWFQQRPGQPPRALIYSTSNKHSWTPARFSGSLLGGKAALTLSGAQPEDEAEYYCLLSYSGARPVFGGGTKLTVLGAAAGSEQKLISEEDLNSHHHHHH
notes: Made in E. coli from pACR.1-scFv 2H1, purified by IMAC; also called scFv 2H1 fragment; bacterial scFv 2H1

Assay [1] addresses T1, Isoform 120 of mouse VEGF-A (R&D) (mouse, UniProt Q00731-3 27-146).
T1 construct: also called isoform 120 of murine VEGF
T1 sequence (looked up): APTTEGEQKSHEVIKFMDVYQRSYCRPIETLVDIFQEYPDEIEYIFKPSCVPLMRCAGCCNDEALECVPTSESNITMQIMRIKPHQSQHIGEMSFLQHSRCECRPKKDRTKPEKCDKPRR
Kind of assay: ELISA on coated antigen (Table 6). On the technique in general: ELISA stands for enzyme-linked immunosorbent assay.

Assay [2] concerns the target T1, Isoform 120 of mouse VEGF-A (R&D). Description: phage ELISA; + means OD at least 5 times the negative control.
Description: The latter was immobilized in a 96-well Maxisorp (Nunc) immunoplate at a concentration of 1 μg/ml in PBS, during 16 h at 4° C. The plate was blocked at 22° C. with PBS-milk 4% during 1 h.
After blocking the plates, the phages purified as described above and diluted in PBS-skimmed milk 4% were added and incubated for 1 h at 22° C. After several washes, the bound phages were detected with anti-M13 peroxidase conjugated antibodies. […] As negative control, a sample of the mixture of phages of the unselected library was used, precipitated as described above.
The assay “scFv 2H1” has as its target B1. Description: phage ELISA on coated scFv 2H1.
Assay [3] concerns the target T1, Isoform 120 of mouse VEGF-A (R&D). Kind of assay: ELISA on coated antigen (Table 7).
Description: The purified Fab fragment was evaluated for its capacity of recognizing human VEGF using an ELISA assay. […] The purified Fab fragment was diluted and incubated for 1 h at 22° C.

Consider B1, for which, in assay [1], the binding result is “no binding (tested: 20 µg/mL)”.

B2: phage clone 2H1-F (scFv)
scFv: QQVQLVQSGAEVKKPGESLKISCKGSGYSFTSYWIGWVRQMPGKGLEWMGIIYPGDSDTRYSPSFQGQVTISADKSISTAYLQWSSLKASDTAMYYCARLVVRDTEIWGQGTMVTVSSAPQAKSSGSGSESKVDQAVVTQEPSLTVSPGGTVTLTCASSIGAVTSGNYPNWFQQRPGQPPRALIYSTSNKHSWTPARFSGSLLGGKAALTLSGAQPEDEAEYYCLLSYSGARPVFGGGTKLTVLG
modifications: Displayed on filamentous phage, fused to a coat protein that the letters do not carry.
notes: Tested as phage; also called scFv 2H1-F; original phage scFv (2H1-F); not shown: phage coat protein of the phagemid display format, with any tag or junction residues before it
Turning to B2, the binding result in assay [2] was “no binding”.

B3: peptide CCRTLMLLQYHR displayed in filamentous phage (peptide)
peptide: CCRTLMLLQYHR
notes: Tested as phage; also called peptide phage clones
On to B3, for which, in the assay with scFv 2H1, the binding result is given as “binds”.

B4: Fab 2H1-32 (Fab, V domains shown)
VH: QVQLVQSGAEVKKPGESLKISCKGSGYSFTSYWIGWVRQMPGKGLEWMGIIYPGDSDTRYSPSFQGQVTISADKSISTAYLQWSSLKASDTAMYYCARLVVRDTEIWGQGTMVTVSS
VL: QAVVTQEPSLTVSPGGTVTLTCASSIGAVTSGNYPNWFQQRPGQPPRALIYSTSNKHSWTPARFSGSLLGGKAALTLSGAQPEDEAEYYCLLSYSGARPVFGGGTKLTVLG
notes: Made in E. coli, purified by IMAC, purity close to 85%; also called Fab fragment 2H1-32; Fab produced in E. coli
On to B4, for which the binding result in assay [3] is given as “no binding (tested: 20 µg/mL)”.

Values taken from patent US20100151566A1 (published 2010).
